± gives the uncertainty stated by the source.
Experiment: amyloid nucleation score (Sup35N fusion, yeast selection) (log enrichment); library NNK2; higher = more nucleation; inactive = no reads after selection
Procedure, shortened: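 For the nucleation score, DiMSum gave the log enrichment of output over input reads, centred on the mode score of non-aggregating sequences. Psi-negative yeast expressing Sup35N fused to peptides of 20 random codons were induced with 100 μM copper sulfate for 24 hours and grown 7 days at 30°C on medium lacking adenine and uracil. Input and output plasmid inserts were Illumina-sequenced, and sequences with under 100 input reads were excluded.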

Substance | amyloid nucleation score
RMGKRNFEQNSANQWVPMNP | 0.691 ± 0.6
RMHWTKTH | -0.311 ± 1.1
RMIYGSRRFDVDIFYFGIRN | 4.24 ± 0.074
RMLLQGVKAVGRGNNGINTV | 0.479 ± 0.8
RMLSLGNYGSNAYICCIVCY | 1.92 ± 0.36
RMNFLA | -0.145 ± 0.5
RMRVIISR | -0.881 ± 0.4
RMSVYNF | -0.177 ± 0.79
RMTEA | 2.32 ± 0.21
RNARDSQYDISGACGLFRDR | -0.287 ± 0.27
RNIRWPAHISAGDKGVSGEF | -0.65 ± 1
RNRCSSDFGSGRINVDGFNM | inactive
RNRRVWM | -0.003 ± 0.41
RNSAHNLEMFYRGMWDGMCW | -0.429 ± 0.55
RNSVFPILLAYDASDFVARK | -0.494 ± 0.41
RNYLNMVYGLFFCIHCSCFS | 5.853 ± 0.05
RNYRIETSSNVIKV | 0.292 ± 0.65
RPFLSTEKRSILMCRVVKGM | -0.254 ± 0.37
RPKLGSSVVRHVMFIGWGCG | 0.797 ± 0.43
RPLCLLGRVATSKETSGRRC | 4.34 ± 0.049
RQGPALFSKINIATLKWLSM | 0.511 ± 0.62
RQVAPMHLYIYSACNGAKNR | 7.095 ± 0.062
RRFLYPVGRGICMENADPFG | 1.29 ± 0.44
RRGGDKVIISEHV | -0.757 ± 0.45
RRGSELINYRR | -0.341 ± 0.79
RRIINWPNSGIGIPRSKSMF | inactive

Substance | amyloid nucleation score
RRIKPIVLPTVCFYYVSITS | inactive
RRKANRVQFLSEYFLVCFVH | inactive
RRLGYPYFTR | -0.743 ± 0.44
RRLYF | -0.561 ± 0.52
RRNNNFLWIDLNLMLPCYDW | 7.75 ± 0.08
RRNTLRYARMKSRYSFAP | -0.674 ± 0.79
RRRCFQLK | 0.294 ± 0.8
RRRIWATM | -0.12 ± 0.31
RRSFTTADTCLLIS | -0.695 ± 0.54
RRSQLRLILTFR | -0.223 ± 0.29
RRVDWDYLPLFMQAAPYSWK | -0.197 ± 0.22
RRVGTC | -0.097 ± 0.74
RRVSAIYYRSLCCLAHYFRL | 0.219 ± 1
RRWQTTS | inactive
RRYAKNMFRDLGWPVPTRSD | 3.09 ± 0.11
RRYHRR | 1.42 ± 0.38
RRYKVDYTPSCIESPGVVLA | -1.19 ± 0.78
RSCSMMVVHLYRGYGKFDTP | -0.354 ± 0.76
RSDMCSAMIFWSELVKWQDG | 3.84 ± 0.091
RSDMH | 0.673 ± 0.44
RSDVSLVYNLWALWWAR | 0.906 ± 0.52
RSFRECQDCGMQMFISRRLV | 0.15 ± 0.18
RSFYIAVSYMGCICIMPIRR | 2.89 ± 0.13
RSGLYM | -0.55 ± 0.64
RSILSCEGPDSLLEAFNEQI | 0.625 ± 0.64
RSITGCDWFLH | 0.063 ± 1.1

Substance | amyloid nucleation score
RSKFLFYIYSGFEIRRKINT | inactive
RSLDIARAY | -1.06 ± 0.4
RSNSMMLCFASDIVRFYHMG | 2.71 ± 0.14
RSRARSWFLDKDMLLSKDRA | inactive
RSSLMYARIHCGEVRRNFLC | 0.177 ± 0.62
RSSSNWSTSGGILRYVVLPK | -0.151 ± 0.42
RSTISYDSSAQYCGGWLGLW | -0.717 ± 1
RSVRSFCVWKVELFVRSEGM | 2.01 ± 0.15
RSVWNASAFVAIFFRVRSQA | 0.547 ± 0.36
RSYVHYGLLAWCYIRVSWDP | 0.428 ± 0.44
RTCTNYVMINETVVR | inactive
RTERSAFLLAPGNGLSRVRR | 0.831 ± 0.4
RTISMYEELVTELRNSVM | -0.283 ± 0.33
RTLGHSLYPIDIYMGSDHLG | inactive
RTNFVNGLAVVVRNM | -0.015 ± 0.45
RTPCVHMPHAVSLGLVALLL | -0.318 ± 0.76
RTQSLASQ | 0.144 ± 0.56
RTSKGAA | 1.21 ± 0.45
RTSKPLRRMNQRGLDFACAL | 1.04 ± 0.41
RTSSTR | 0.468 ± 0.28
RTVYFCQN | -1.5 ± 1.1
RTWCPLG | 0.486 ± 0.41
RVDARERNELDGIYFIVGSS | -0.271 ± 1
RVHRLQTEEVMYSSGSK | 4.96 ± 0.065
RVLADVKRYRECQTRCRDAW | 1.04 ± 0.34
RVLTKYMFMILFSSSFSYVR | 0.154 ± 0.5

Substance | amyloid nucleation score
RVLVVYRSLKVAESLSLTSV | 0.093 ± 0.33
RVMSHT | 0.658 ± 0.51
RVNFSGIDVVRLFHYCFYMK | -1.51 ± 0.76
RVPTSNLWSGNFYTALRVTG | -0.833 ± 0.63
RVPTVLFFLIVDFSCPPFSC | inactive
RVRNMS | 0.1 ± 0.32
RVSIVCWIFVDSREHFFSVK | -0.818 ± 0.55
RVSLTIYKC | 3.24 ± 0.12
RVTRG | inactive
RVVWWVVGFS | -0.297 ± 0.56
RVYLMLLVQYRTWSYVFVDC | -0.402 ± 0.26
RVYMCCSSYCGNITKVQ | 8.027 ± 0.022
RVYNITILYRCLKRRLS | 0.878 ± 0.57
RWATVLLDPF | -0.299 ± 0.79
RWFIDYHGSVFCFQKYIPPV | -0.526 ± 0.54
RWKTVFRVYVEQKALPDLIC | 5.85 ± 0.087
RWLPSVID | -0.302 ± 0.61
RWLRPRSFWMDVVGSKI | 1.83 ± 0.11
RYCFT | 1.03 ± 0.38
RYFLYFCYVGPNSAMFLSR | -0.27 ± 1.1
RYFSISAFMVMGTVNVGGYW | 4.18 ± 0.045
RYFWRVSNIVWASAF | -0.498 ± 0.44
RYFYLLWLIVTWIYSRVVIH | inactive
RYIMHL | -0.105 ± 1.1
RYINWLQYECNTLCAVDKSL | -0.436 ± 0.76
RYPLVKFQCYTGNYGKFGNL | 3.01 ± 0.071

Substance | amyloid nucleation score
RYQGLLTPVTAGRLFICIP | -0.363 ± 1.1
RYTWWWHSLFMSDSVAMNSA | -0.334 ± 0.42
RYVYRTVGWHQFLCGTVLFW | 0.588 ± 0.16
SAFYKQCEWFFNLMANSLCG | -0.021 ± 0.63
SAGEKWWKGMHYARGRPVRR | 0.726 ± 0.2
SAKHTWVISR | 0.098 ± 0.79
SALERVKSWSQGNNSIGDHI | -0.418 ± 1.1
SALSLICDRWFDCFLRGTQY | 3.66 ± 0.15
SARFCIWVYVSNGNNGMRCV | 3.52 ± 0.04
SAVWRHVNDLLLSR | 1.11 ± 0.4
SAWRVCYRTNENCAPFMYVL | -1.22 ± 0.75
SAYDSTCRFISGFL | -1.68 ± 1
SCAIELLVQNNSEHLRLITI | -0.266 ± 0.3
SCAVSIVTGRGVHSFVKAWF | 0.547 ± 0.17
SCDRIRMCCSWCQV | 3.54 ± 0.049
SCENTSSQELWYTCSIDLKL | 0.472 ± 0.66
SCFGRKLLLLDGA | 0.203 ± 0.28
SCFVLLSSVDSLCMQDHF | 0.311 ± 0.43
SCHVFFVTIEGNASSANGHR | 8.14 ± 0.07
SCIYLGVLRKVCMRFIMVIV | -1.03 ± 0.63
SCKWVRGVSRMPNHWN | -0.618 ± 1.1
SCMFYYCCTDTYKVPYSDAM | 7.759 ± 0.067
SCMLFEAAYPRVYMYWSRRF | -1.91 ± 0.75
SCRLFVLYALLFGLSVGCVL | inactive

— the supplement of paper PMC12042874
